{
  "source": "paper PMC5988664",
  "target": "endothelin-converting enzyme 1 (Ece1), monomer (mouse (endogenous in NMuMG and C2C12))",
  "assay": "cross-linking",
  "data": [
    {"substance": "endothelin-converting enzyme 1 (Ece1), monomer", "values": [
      {"measurement": "stoichiometry N", "value": 2}
    ]}
  ]
}
